# Test results from the nanobody polyreactivity screen of Harvey et al. (2022).
# Experiment: yeast display, Sf9 membrane polyspecificity reagent, FACS + sequencing; frameworks hold sequencing errors
# Method in brief: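 A synthetic nanobody library was expressed on Saccharomyces cerevisiae BJ5465 by galactose induction for 36–48 hours. The library was stained for 1 hour at 4 °C with 10% biotinylated, detergent-solubilized Sf9 membrane reagent and enriched with streptavidin microbeads before FACS. Low and high (top ~1%) gates were set on anti-HA fluorescence for expression and streptavidin fluorescence for reagent binding, and each polyreactivity label reflects the gate of origin.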
row,Sequence,polyreactivity (PSR sort gate)
1,QVQLVESGGGLVQAGGSLRLSCAASGFTSGNYAMGWYRQAPGKERELVAAIDSDGSTYYADSVKGRFTISRDNAKNTVYLQMKSLKPEDTAVYYCNKDIKSATDSYHYEDDYWGQGTQVTVSS,low polyreactivity
2,QVQLVESGGGLVQAGGSLRLSCAASGFTSPIYAMGWYRQAPGKERELVAVIDWSSGITYYADSVKGRFTISRDNAKNTVYLQMNSLKPEDTAVYYCAAEYRGRGWRYGYDYWGQGTQVTVSS,high polyreactivity
3,QVQLVESGGGLVQAGGSLRLSCAASGFTSRNYAMGWYSQARGKARELVAVFSKSGTSTYYADSVKGRFTISRDHAKNTVYLQMTSLKPEDTAVYYCSADTGHLSNSMDYWGQGTQVTVSS,high polyreactivity
4,QVQLVESGGGLVQAGGSLRLSCAASGFTSWDNDMGWYRQAPGKERELVAAMSRGGSTNYADSVKGRFTISRDNAKNTVYLQMNSLKPEDTAVYYCAAGSYAGFAVIGYYYWGQGTQVTVSS,low polyreactivity
5,QVQLVESGGGLVQAGGSLRLSCAASGFTTSQYAMGWYRQAPGKERDLVAAITSSGSSTYYADSVKGRFTISRDNAKNTVYLQMNSLKPEDTAVYYFNTDAYHRYPGSVWYYYWGQGTQVTVSS,high polyreactivity
6,QVQLVESGGGLVQAGGSLRLSCAASGFTVGLYAMGWYRQAPGKERELVAAISGGGSTNYADSVKGRFTISRDNAKNTVYLQMNSLKPEDTAVYYCNKAYHNVYYNWYLRYYSYDYWGQGTQVTGSS,low polyreactivity
7,QVQLVESGGGLVQAGGSLRLSCAASGFTVGSNAMGWYRQAPGKERELVAAISRSSGRTYYADSVKGRFTISRDNAKNTVDLQMNSLKPEDTAVYYCAAQTRYRISLQYYYWGQGTQVTVSS,high polyreactivity
8,QVQLVESGGGLVQAGGSLRLSCAASGFTVGYAMGWYRQAPGKEREFVAAITRGGGTRTSYADSVKGRFTISRDNAKNTVYLQMNSLKPEDTAVSYCAARRWWSPRTQYDYWGQGTQVTVSS,high polyreactivity
9,QVQLVESGGGLVQAGGSLRLSCAASGFTVPGYAMGWYRQAPGNERELVAAINSSGGRTYYADSVKGRFTISRDTAKITVYFQMTSLKPEDTAVYYCAATRWYIRARYNYWGQGTQVTVSS,high polyreactivity
10,QVQLVESGGGLVQAGGSLRLSCAASGFTYIDYAMGWYRQAPGKERELVAAITSRGGTTYYADSVKGRFTISRDNAKNTVYLLMNSLKPEDTAVYYCNAGSSFWVSRIGYDYWGQGTQVTVSS,high polyreactivity
11,QVQLVESGGGLVQAGGSLRLSCAASGFTYIRYAMGWSRKATGKERQLVAAIRGTGTSTYFADSVKGRFTISRDNGKNTVYLQMNSLKPEETAVYYCNNVSGRSPYTRYDYWGQGTQVTVSS,low polyreactivity
12,QVQLVESGGGLVQAGGSLRLSCAASGFTYNRYAMGWYRQAPGKERELVAGISWGGGSTYYADSVKGRFTISRDNAKNTVYLQMNSLKPEDTAVYYCAAGWQHYRRYGSYDYWGQGTQVTVSS,high polyreactivity
13,QVQLVESGGGLVQAGGSLRLSCAASGFTYPGYAMGWYRQAPRKERELVASITDNGANTYYADSVKGRFTISRDNAKNTVYLQMNSLKPEDTAVYYCAADPGRVTRVGVRYYYWGQGTQVTVSS,high polyreactivity
14,QVQLVESGGGLVQAGGSLRLSCAASGFTYRKYALGWYRQAPGKERELVAVINIVGSTYYADSVKGRFTISRDNAKNTVYLQMYSLTPEDTAVYYCAADWSYRLKYYWYGGFKYWGQGTQVTVSS,high polyreactivity
15,QVQLVESGGGLVQAGGSLRLSCAASGFTYSRYAMGWYRQAPGKERELVAAIRLRDGITYYADSVKGRITISRDNAKNTVYLQMNRLKPEDTAVYYCNAVNRTPVSQLDYWGQGTQVTVSS,high polyreactivity
16,QVQLVESGGGLVQAGGSLRLSCAASGFTYYAMGWYRQAPGKERELVAAITRGGSTYYADSVKGRFTISRDNAKNTVYLQMNSLKPEDTAVYYCAVLQRAARLGYNYWGQGTQVTVSS,high polyreactivity
17,QVQLVESGGGLVQAGGSLRLSCAASGFTYYIYAMGWYRQAPGKERELVAAISRSAGITNYADSVKGRFTISRDNAKNTVYLQMNSLKAEDTAVYYCAAEVGYWGYQISGDYWGQGTQVTVSS,low polyreactivity
18,QVQLVESGGGLVQAGGSLRLSCAASGFVWYTMGWYRQAPGKERELVADITYRGGSTYYADSVKGRFTISRDNAKNTVYLQMNSLKPEDTAVYYCAAKPHWYWRYEYWGQGTQVTVSS,high polyreactivity
19,QVQLVESGGGLVQAGGSLRLSCAASGFYYGMGWYRQAPGKERELVAAISRGGSTYYADSVKGRFTISRDNAKNTVYLQMNSLKPEDTAVYYCAATYRSLYGSRMGYWGQGTQVTVSS,high polyreactivity
20,QVQLVESGGGLVQAGGSLRLSCAASGFYYYVMVWYRQAPGKERELVAGITASGGSTYADSVKGRFTISRDNAMYTVYLQMNSLKPEDTAVYYCAAGFVGTNYTLHGFSYEYWGQGTQVTVSS,low polyreactivity

row,Sequence,polyreactivity (PSR sort gate)
1,QVQLVESGGGLVQAGGSLRLSCAASGGIFAPNAKGWYRQAPGKEREFVAAISTGGGSTRYADSVKGRFTISRDNAKYTVYLQMNSLKPEDTAVYYCAATRVGVRRMDYWGQGTQVTVSS,low polyreactivity
2,QVQLVESGGGLVQAGGSLRLSCAASGGIFAPYAMGWYRTAPGKERELVAAISSSDGSTYYADSVKGRFTISRDNAQNTVYLHMNSLKTVDTAVYYCAADYREDYGYWGEGTQVTVSS,low polyreactivity
3,QVQLVESGGGLVQAGGSLRLSCAASGGIFAQYAMGWYRQAPGKEREFVATISTSGGSTYYADSVKGRYTISRDNAKNTVYLQMNSLKPEDTAVYYCARYSYRGTNVRYDYWGQGTQVTVSS,high polyreactivity
4,QVQLVESGGGLVQAGGSLRLSCAASGGIFARYAMGWYRQAPGKEREFVAAISFSGASTYYADSVKGRFTISRDNAKNTVYLQMNSLKPEDTAVYYCAAYWDAEGRRYTRLDYWGQGTQVTVSS,low polyreactivity
5,QVQLVESGGGLVQAGGSLRLSCAASGGIFARYVKGWYRQAPGKERELVAAISLSGGSTYYADSVKGRFTISRDNAKKTVYLQMNSLNPEDTAVYYCAAIRKKRLTYDYWGQGTEVTVSS,high polyreactivity
6,QVQLVESGGGLVQAGGSLRLSCAASGGIFAVNVMGWYRQAPGKERELVAAITSTGSTYYADSVKGRFTISRDNAKNTVYLQMNSLKPEDTAVYYCASDYVYYDSYDDTVFGYEYWGQGTQVTVSS,high polyreactivity
7,QVQLVESGGGLVQAGGSLRLSCAASGGIFAYYVMGWYRQAPGKERELVASISSGGGTYYADSVKGRFTISRDNAKNTVYLQMNSLKPEDTAVYYCAARWLRYVYPDGHLFWYDYWGQGTQVTVSS,high polyreactivity
8,QVQLVESGGGLVQAGGSLRLSCAASGGIFDDYAMGWYRQAPGKERELVAAISSSGGSTYYADSVKGRFTISRDNAKNTVYLQMNSLKPEDTAVYYCNADRRRRFGYWGQGTQVTVSS,high polyreactivity
9,QVQLVESGGGLVQAGGSLRLSCAASGGIFDENAMGWYRQAPGKARELVAGITQRGASTNYADSVKGRFTISRDNAKNTVYLQMNSLKPEDTAVYYCDADVGTVISYEYWGQGTQVTVSS,low polyreactivity
10,QVQLVESGGGLVQAGGSLRLSCAASGGIFFTYAMGWYRQAPGKERELVAGISWSDGSTYADSVKGRFTISRDNAKNTVYLQMNSLKPEDTAVYYCNKRIYDLFLSPAAGGYWGQGTQVTVSS,low polyreactivity
11,QVQLVESGGGLVQAGGSLRLSCAASGGIFFYSAMGWYRQAPGTERELVAAISYSGGSTYYADSVKGRFTISRDIAKNTVYLQMISLKPEDTAVYYCAADVYSESKSGIYEYWGQGTQVTVSS,low polyreactivity
12,QVQLVESGGGLVQAGGSLRLSCAASGGIFGGYAMGWYRPAPGKEGELVAVITSGGSTYYADSVKGRFTISRDNAKNTVYLQMNSLKPEDTAVYYCAALGQYQTVYSDGYDYYYWGQGTKVTVSS,low polyreactivity
13,QVQLVESGGGLVQAGGSLRLSCAASGGIFGGYAMGWYRQAPGKEGELVPVITSGGSTYYADSVKARFTISRDNAKNTVYLQMNSLKPEDTAVYYCAADGHSYSYSTYDYWGQGTQVTVSS,low polyreactivity
14,QVQLVESGGGLVQAGGSLRLSCAASGGIFGHNAMGWYRQAPGKERELVAAISYTGGSTYYADSVKGRFTISRDNAKNTVNLQMNSLKPEDTAVYYCNAVQRRFRYPFDYWGQGTQVTVSS,low polyreactivity
15,QVQLVESGGGLVQAGGSLRLSCAASGGIFGIYAMGSYRQAPGKERELVAAINGGTSTYYADSVKGRFTISRDNAKNTVYLQMNSLKPEDTAVYYCAADWRYLYYALDYWGQGTQVTVSS,low polyreactivity
16,QVQLVESGGGLVQAGGSLRLSCAASGGIFGRYAMGWYIQAPGKERELFAAISKRGGSTYYADSVKGRFTISRDNAKNTVYLQMNSLKPEDTAVYYCNAYRLSYTTFGKADGDYWGQGTQVTVSS,high polyreactivity
17,QVQLVESGGGLVQAGGSLRLSCAASGGIFGWYTMGWYRQAPGKERELVAAINFSGSRTYYADSVKGRFTISRDNAKNTVYLQMNSLKPEDTAVYYCNAVYHQFREEYWGQGTQVTVSS,high polyreactivity
18,QVQLVESGGGLVQAGGSLRLSCAASGGIFGYYAMGWYRPAPGKERELVAAINYSGGSTYYADSVKGRFTISRDNAKNTVYLQMNSLKPEDTAVYYCNAVVRDYTFRYYYWGQGTQVTVSS,low polyreactivity
19,QVQLVESGGGLVQAGGSLRLSCAASGGIFHHYAMGWSRPAPGKERELVAGISWRGTSTYYADSVKGRFTISRDNAKNTVYLQMNSLKPEDTAVYYCARVYPYSVGYNSGHPASYDYWGQGTQVTVSS,high polyreactivity
20,QVQLVESGGGLVQAGGSLRLSCAASGGIFHSNAMGWYRQAPGKERELVAAISYSGGSTYYADSVKGRFTISRDNAKNTVYLQMNSLKPEDTAVYYCAKRYYGSPQLRYYYWGQGTQVTVSS,high polyreactivity
